Source: publication doi:10.1101/2021.10.05.463282 (2021)

B1: B8-IgG1 (antibody, V domains shown)
VH: EVQLVQSGAEVKKPGSSVKVSCKASGGTFSNYGISWVRQAPGQGLEWMGRILPTFGTANSAQKFQGRVTITADESTGTAYMELRSLRSEDTAVYYCAKEGLAFLGYGMDVWGQGTTVTVSS
VL: EIVLTQSPGTLSLSPGERATLSCRASQSVSSYLAWYQQKPGQAPRLLIYDASNRATGIPARFIGSGSGTDFTLTISSLEPEDFAVYFCQQRSNWPLTFGGGTKVEIK
B2: B8-mIgA2 (antibody, V domains shown)
VH: EVQLVQSGAEVKKPGSSVKVSCKASGGTFSNYGISWVRQAPGQGLEWMGRILPTFGTANSAQKFQGRVTITADESTGTAYMELRSLRSEDTAVYYCAKEGLAFLGYGMDVWGQGTTVTVSS
VL: EIVLTQSPGTLSLSPGERATLSCRASQSVSSYLAWYQQKPGQAPRLLIYDASNRATGIPARFIGSGSGTDFTLTISSLEPEDFAVYFCQQRSNWPLTFGGGTKVEIK
B3: B8-dIgA2 (antibody, V domains shown)
VH: EVQLVQSGAEVKKPGSSVKVSCKASGGTFSNYGISWVRQAPGQGLEWMGRILPTFGTANSAQKFQGRVTITADESTGTAYMELRSLRSEDTAVYYCAKEGLAFLGYGMDVWGQGTTVTVSS
VL: EIVLTQSPGTLSLSPGERATLSCRASQSVSSYLAWYQQKPGQAPRLLIYDASNRATGIPARFIGSGSGTDFTLTISSLEPEDFAVYFCQQRSNWPLTFGGGTKVEIK
B4: B8-dIgA1 (antibody, V domains shown)
VH: EVQLVQSGAEVKKPGSSVKVSCKASGGTFSNYGISWVRQAPGQGLEWMGRILPTFGTANSAQKFQGRVTITADESTGTAYMELRSLRSEDTAVYYCAKEGLAFLGYGMDVWGQGTTVTVSS
VL: EIVLTQSPGTLSLSPGERATLSCRASQSVSSYLAWYQQKPGQAPRLLIYDASNRATGIPARFIGSGSGTDFTLTISSLEPEDFAVYFCQQRSNWPLTFGGGTKVEIK
B5: B8-mIgA1 (antibody, V domains shown)
VH: EVQLVQSGAEVKKPGSSVKVSCKASGGTFSNYGISWVRQAPGQGLEWMGRILPTFGTANSAQKFQGRVTITADESTGTAYMELRSLRSEDTAVYYCAKEGLAFLGYGMDVWGQGTTVTVSS
VL: EIVLTQSPGTLSLSPGERATLSCRASQSVSSYLAWYQQKPGQAPRLLIYDASNRATGIPARFIGSGSGTDFTLTISSLEPEDFAVYFCQQRSNWPLTFGGGTKVEIK

What follows are binders tested against recombinant RBD derived from SARS-CoV-2 (Sino Biological) (SARS-CoV-2, ancestral (Wuhan-Hu-1) …, UniProt P0DTC2) (assay: ELISA).
B1: binds.
B2: binds.
B3: binds.
B4: binds.
B5: binds.
